Laboratory results reported in patent US20080242590A1, “New Method 706” (ASTRAZENECA AB, priority 2007, published 2008).

What was measured:
[1] = target: amyloid β peptide 1-42 (human) (human); assay: cell-based or functional assay
[2] = target: amyloid β peptide 1-40 (human) (human); assay: cell-based or functional assay
amyloid β peptide 1-40 (human) (human), sequence (peptide, as listed by the source): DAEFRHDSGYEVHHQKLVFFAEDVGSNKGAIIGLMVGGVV

amyloid β peptide 1-42 (human) (human), sequence (peptide, as listed by the source): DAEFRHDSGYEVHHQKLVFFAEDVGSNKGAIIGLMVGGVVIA

B1: Fc-Neprilysin fusion protein (human IgG2 hinge and Fc domain fused N-terminally to the extracellular domain of human Neprilysin) (Fc fusion)
chain: ERKCCVECPPCPAPPVAGPSVFLFPPKPKDTLMISRTPEVTCVVVDVSHEDPEVQFNWYVDGVEVHNAKTKPREEQFNSTFRVVSVLTVVHQDWLNGKEYKCKVSNKGLPAPIEKTISKTKGQPREPQVYTLPPSREEMTKNQVSLTCLVKGFYPSDIAVEWESNGQPENNYKTTPPMLDSDGSFFLYSKLTVDKSRWQQGNVFSCSVMHEALHNHYTQKSLSLSPGKYDDGICKSSDCIKSAARLIQNMDATTEPCTDFFKYACGGWLKRNVIPETSSRYGNFDILRDELEVVLKDVLQEPKTEDIVAVQKAKALYRSCINESAIDSRGGEPLLKLLPDIYGWPVATENWEQKYGASWTAEKAIAQLNSKYGKKVLINLFVGTDDKNSVNHVIHIDQPRLGLPSRDYYECTGIYKEACTAYVDFMISVARLIRQEERLPIDENQLALEMNKVMELEKEIANATAKPEDRNDPMLLYNKMTLAQIQNNFSLEINGKPFSWLNFTNEIMSTVNISITNEEDVVVYAPEYLTKLKPILTKYSARDLQNLMSWRFIMDLVSSLSRTYKESRNAFRKALYGTTSETATWRRCANYVNGNMENAVGRLYVEAAFAGESKHVVEDLIAQIREVFIQTLDDLTWMDAETKKRAEEKALAIKERIGYPDDIVSNDNKLNNEYLELNYKEDEYFENIIQNLKFSQSKQLKKLREKVDKDEWISGAAVVNAFYSSGRNQIVFPAGILQPPFFSAQQSNSLNYGGIGMVIGHEITHGFDDNGRNFNKDGDLVDWWTQQSASNFKEQSQCMVYQYGNFSWDLAGGQHLNGINTLGENIADNGGLGQAYRAYQNYIKKNGEEKLLPGLDLNHKQLFFLNFAQVWCGTYRPEYAVNSIKTDVHSPGNFRIIGTLQNSAEFSEAFHCRKNSYMNPEKKCRVW
% degradation of Aβ 1-42 in APPswe-tg mouse plasma at highest concentration (100 µg/ml), 1 h room temperature, ELISA [1]: 34% | % degradation of Aβ 1-42 in human plasma at highest concentration (100 µg/ml), 1 h room temperature, ELISA [1]: 28% | EC50 of degradation of Aβ 1-42 in APPswe-tg mouse plasma [1]: 1300 nM | EC50 of degradation of Aβ 1-42 in human plasma [1]: 250 nM | % degradation of amyloid β 1-40 in APPswe-tg mouse plasma at highest concentration (100 µg/ml), 1 h room temperature, ELISA [2]: 71% | % degradation of amyloid β 1-40 in human plasma at highest concentration (100 µg/ml), 1 h room temperature, ELISA [2]: 66% | Amyloid β 1-40 peptide degradation (remaining peptide by Gyrolab immunoassay), batch 1, 2.4 µg/ml, 300 nM peptide, 2.5 h at 37 °C in buffer [2]: 50% | Amyloid β 1-40 peptide degradation (remaining peptide by Gyrolab immunoassay), batch 2, 2.4 µg/ml, 300 nM peptide, 2.5 h at 37 °C in buffer [2]: 42% | EC50 of degradation of Aβ 1-40 in APPswe-tg mouse plasma [2]: 470 nM | EC50 of degradation of Aβ 1-40 in human plasma [2]: 580 nM
